# Source: the supplement of paper PMC10126150
# ± gives the standard deviation of the averaged measurements.
# Tested on: ATP
# Experiment: switch fluorescence ratio, 500 uM ATP over buffer (Cy3 cluster intensity, sum of 5 cycles each) (fold (ratio)); higher = stronger signal-on switching upon ATP binding; sequences stand for … in TCGTCGGCAGCGTCAGATGTGTATAAGAGACAGTTTTTTTTTTTTTTTTTTTTTTTTT…TC
# Conditions: aptamer strand: ATP DNA aptamer (quencher-CACCTGGGGGAGTATTGCGGAGGAAGG + anchor), 100 nM annealed; ATP concentration: 500 uM
# Outline: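 Values give the fluorescence ratio for each switch-domain sequence, averaged from per-cluster ratios of summed target-cycle to summed buffer-cycle Cy3 intensity. The Cy3-labelled switching-strand clusters sat on a modified Illumina MiSeq flow-cell, were annealed to 100 nM quencher-labelled ATP aptamer, and were imaged in selection buffer, then after 15 min with 500 uM ATP at 22 °C. Five cycles ran with NaOH stripping and re-annealing between them, and clusters outside 100-1000 RFU were excluded.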
# 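Further: ATP exposure 15 min at 22 °C before imaging.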
row,Sequence,switch fluorescence ratio
1,AAAAAAAAAA,1 ± 0.022
2,AAAGGTTTGC,1 ± 0.039
3,AGTGGGAAAG,0.965 ± 0.027
4,AAAGTACGCG,0.984 ± 0.046
5,ATTTATCTGA,0.99 ± 0.016
6,TTTCCCAGGT,3.64 ± 2.7
7,AAGGTCGCTG,0.9861 ± 0.00072
8,GAGGGGGGTT,1 ± 0.027
9,TTCATATGTT,0.981 ± 0.012
10,TTAAAGTTTG,1.06 ± 0.063
11,AGTGTTTTGG,0.967 ± 0.024
12,CTAGTTTGGT,1.008 ± 0.0049
13,GTGGGTTGTA,1.01 ± 0.05
14,GACTATCTAG,0.975 ± 0.056
15,GCCGGGGACC,0.98 ± 0.031
16,CGTTATGAGG,0.991 ± 0.011
17,CGATTTCAGG,1.02 ± 0.036
18,CACTTCCTTA,1.098 ± 0.0081
19,CGGGAACTGG,0.97 ± 0.023
20,CCTTACAGCT,1.2 ± 0.044
21,AAGATTTTGA,0.936 ± 0.063
22,CTCGGGGTGC,1.036 ± 0.004
23,CATTGCCCGT,0.989 ± 0.017
24,CGTGTGCATG,1.06 ± 0.13
25,TTTTTCGGGC,1.08 ± 0.24
26,CCCCTTGTTC,1.01 ± 0.02

row,Sequence,switch fluorescence ratio
1,ATAATTCATG,0.981 ± 0.029
2,TATGGAATGC,1.35 ± 0.076
3,AGTGTAATAT,1 ± 0.023
4,AGTTTTAGCC,1 ± 0.027
5,TCCGGAATGG,4.16 ± 0.47
6,AGGTCCCGTT,0.993 ± 0.036
7,AAAAGGGAGG,1.03 ± 0.019
8,CGGGCTTAAG,1.02 ± 0.037
9,ACGAGCGATT,1.7 ± 0.058
10,TAGTAGTGGG,1.01 ± 0.022
11,AATTTGTGTG,0.99 ± 0.034
12,TTTGGTTTT,0.988 ± 0.027
13,GCTCGAGGGT,1 ± 0.03
14,GACTGAGAGT,1 ± 0.054
15,TAAAAGTTAA,0.981 ± 0.018
16,TGTTAGTCCC,0.9897 ± 0.0022
17,TCCATACCAC,1.03 ± 0.032
18,ATAATCCTGG,0.987 ± 0.011
19,TATGTTACCT,1.22 ± 0.05
20,GACGGGGGAT,1.081 ± 0.0031
21,TCGCTTACAT,1.0488 ± 0.00048
22,TTACTTTAGG,1.05 ± 0.023
23,TCCGGGGTTT,1.02 ± 0.056
24,TCGTATGTTA,0.97 ± 0.014
25,AAGTTTTAAG,1 ± 0.021
26,AGTTGACTTT,0.986 ± 0.011

row,Sequence,switch fluorescence ratio
1,TCGGGGAGCG,0.949 ± 0.042
2,CAGGTCCGCT,1.12 ± 0.036
3,CTTATTTGAT,0.975 ± 0.01
4,CGTTCTATTC,1.11 ± 0.17
5,ATGTCGATGG,0.9908 ± 0.0065
6,CGACACCGTT,1.03 ± 0.056
7,AAGCGAGG,0.9872 ± 0.0032
8,GCCCTCACGT,1.08 ± 0.081
9,TTCGAGCTTC,1.07 ± 0.034
10,AATTTGTTTT,1.02 ± 0.028
11,CGATTTAGCG,0.9773 ± 0.009
12,CGGTTCCTAA,0.994 ± 0.016
13,ACCCAGGAGC,1.35 ± 0.12
14,AAGAGGGCGT,1.012 ± 0.0064
15,AATTATAAGA,0.996 ± 0.027
16,AGCAGAGTTG,1 ± 0.018
17,AGTCGAGTGG,1.02 ± 0.047
18,TGTCACAGGG,1.063 ± 0.007
19,TTGATGTGGG,0.975 ± 0.029
20,TGGCTGTCTT,0.97 ± 0.13
21,TGCGTCGCCT,1.013 ± 0.0049
22,GAAGGAATCG,0.995 ± 0.048
23,GGTGATTCTG,0.965 ± 0.038
24,TAATTACTAT,1.12 ± 0.17
25,ACGCGGAGTG,1.02 ± 0.016
26,TTGCAAGAAT,1.023 ± 0.0021

row,Sequence,switch fluorescence ratio
1,TGTTAGTCGT,1.013 ± 0.0091
2,CAGGTTGTTT,1.23 ± 0.45
3,GGGTGTATTG,1.01 ± 0.044
4,TGTTGATGGT,0.976 ± 0.031
5,ATTGAAGGGT,0.981 ± 0.034
6,AAAGGTCGAC,0.973 ± 0.021
7,GACGTGCAGG,1.07 ± 0.11
8,TCTGTGTTTT,1.04 ± 0.038
9,TGCCTAATTG,0.977 ± 0.026
10,TTATGATGGG,0.99 ± 0.017
11,GGTCCATTTT,0.969 ± 0.017
12,ATTTATCCAC,1.01 ± 0.046
13,GCCGCATGTG,1.28 ± 0.036
14,ATGATCCCCG,1.05 ± 0.025
15,TCTGAGATAT,0.9872 ± 0.0028
16,GGTGGTGGGG,0.968 ± 0.03
17,TATGGAGAAC,1.01 ± 0.035
18,TGGGAAGAGA,1.02 ± 0.018
19,TTTTGTACGT,1.02 ± 0.041
20,GGGAAAGGCG,0.983 ± 0.042
21,GCCTTTTTGG,1.02 ± 0.022
22,TTTAGGGGTC,0.981 ± 0.024
23,TTTCAAAAGG,1.01 ± 0.019
24,TATCGGTTCG,0.9992 ± 0.0076
25,CTATCGGGAC,1.09 ± 0.026
26,GGAGGCAGTT,0.9738 ± 0.006

row,Sequence,switch fluorescence ratio
1,ATGGGGGCAG,1.03 ± 0.027
2,GCTTTGATGT,0.9839 ± 0.0032
3,AGGGTTGCGC,1.02 ± 0.019
4,AAAATTTTGA,0.992 ± 0.025
5,GAAGTAAAGT,1.06 ± 0.15
6,TTCATGTTGT,0.984 ± 0.027
7,CTTTATTTAA,1.02 ± 0.02
8,TTCTCCCGGG,1.29 ± 0.068
9,CAGGGACAAT,1.04 ± 0.023
10,ATTAGTGTTG,0.956 ± 0.022
11,TGCAAATTCC,1.11 ± 0.021
12,GCGTGCCGAC,0.9793 ± 0.0041
13,TTAATGGGCG,1.09 ± 0.18
14,ACGGGGAAAA,1.03 ± 0.036
15,TGGTGATGCG,0.998 ± 0.064
16,AATGGCTCGC,0.996 ± 0.061
17,TCTATAGGGG,1 ± 0.05
18,TGGGATAGTT,1.024 ± 0.0069
19,CCGGGGGTCC,1.02 ± 0.019
20,GGGAAATTTT,0.987 ± 0.021
21,TGTTGGTCTT,0.952 ± 0.032
22,GTGACGAAGA,1.033 ± 0.0065
23,AGCCAGGGAG,1.028 ± 0.0056
24,CAATTACTAG,1.01 ± 0.029
25,TGGGGTTCAT,0.985 ± 0.025
26,AACTTACACG,1.2 ± 0.018

row,Sequence,switch fluorescence ratio
1,ATAAGTAACG,1 ± 0.015
2,AATTCTGAGG,0.977 ± 0.025
3,ACCCGCTCTT,1.13 ± 0.022
4,GCTAGTCTCA,1.01 ± 0.028
5,CGGGGCTTGG,1.01 ± 0.023
6,TTATCTTTTT,1 ± 0.032
7,AATTTGGGGA,0.968 ± 0.013
8,GTGTTTACGA,0.984 ± 0.027
9,TGCAAAGGTG,1.34 ± 0.094
10,GTGATTATGG,0.981 ± 0.028
11,GAAGGGACGA,0.993 ± 0.04
12,GGTTTTGGAT,0.986 ± 0.019
13,GGATTCTTAG,0.986 ± 0.049
14,GTGAGGTATC,1.04 ± 0.032
15,TATGATGCTC,0.998 ± 0.043
16,GGTGATTGCT,0.967 ± 0.036
17,TTTTGAAGCG,0.99 ± 0.024
18,AGGCCCGTTA,0.9957 ± 0.0027
19,CTAACGCCTT,1.13 ± 0.042
20,CTGATGGGCT,0.972 ± 0.029
21,TACAGGTGCA,1.81 ± 0.022
22,CTTTATTTGT,1.001 ± 0.009
23,AAATGTTATC,0.986 ± 0.042
